Data published in the supplement of paper PMC7125110.
± gives the standard error. For some of these results: Variants at the floor of the assay were thinned out.

B1: glmS ribozyme (parent)
chain: AUAAAAGCGCCAGAACUACAGAAAUGUAGUUGACGAGGAGGAGGUUUAUCGAAUUUUCGGCGGAUGCCUCCAAA

Assays:
Settings in all cases: with glucosamine-6-phosphate
[1] = variants of: B1; experiment: kcat; higher = faster cleavage; RNA array
Outline: (§1)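 Ribozyme variants carrying barcodes were transcribed in situ on sequenced MiSeq chips by E. coli RNA polymerase and tracked at 37 °C with a hybridised Cy3 probe. They were exposed to 40 μM to 10 mM glucosamine-6-phosphate in HEPES/KCl/Mg(OAc)2 buffer. kobs came from exponential decay fits of normalised per-tile medians, and kcat and KM from weighted Michaelis–Menten fits.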

[2] = variants of: B1; experiment: KM; higher = weaker cofactor use; RNA array
Outline: as §1

[3] = variants of: B1; experiment: self-cleavage kobs at 160 uM GlcN6P; higher = faster cleavage; RNA array
Outline: as §1

[4] = variants of: B1; experiment: self-cleavage kobs at 640 uM GlcN6P; higher = faster cleavage; RNA array
Outline: as §1

[5] = variants of: B1; experiment: self-cleavage kobs at 10000 uM GlcN6P; higher = faster cleavage; RNA array
Outline: as §1

[6] = variants of: B1; experiment: self-cleavage kobs at 2500 uM GlcN6P; higher = faster cleavage; RNA array
Outline: as §1

[7] = variants of: B1; experiment: self-cleavage kobs at 40 uM GlcN6P; higher = faster cleavage; RNA array
Outline: as §1

| Variant | kcat [1] | KM [2] | self-cleavage kobs at 160 uM GlcN6P [3] | self-cleavage kobs at 640 uM GlcN6P [4] | self-cleavage kobs at 10000 uM GlcN6P [5] | self-cleavage kobs at 2500 uM GlcN6P [6] | self-cleavage kobs at 40 uM GlcN6P [7] |
| --- | --- | --- | --- | --- | --- | --- | --- |
| A42U A52U | 3e-05 ± 6.8e-07 s⁻¹ | 2350 ± 200 µM | < 1e-05 s⁻¹ | < 1e-05 s⁻¹ | 2.43e-05 ± 9.1e-06 s⁻¹ |  |  |
| G29A G32U | 0.00277 ± 0.00084 s⁻¹ |  |  | 7.58e-05 ± 1.8e-05 s⁻¹ | 0.000888 ± 0.00014 s⁻¹ | 0.000325 ± 5.7e-05 s⁻¹ |  |
| C10G G62U | < 1e-05 s⁻¹ |  |  |  |  |  | < 1e-05 s⁻¹ |
| A48C | 0.000456 ± 3.9e-05 s⁻¹ | 2180 ± 390 µM | 2.69e-05 ± 2.4e-06 s⁻¹ | 9.91e-05 ± 2.7e-06 s⁻¹ | 0.000362 ± 6.6e-06 s⁻¹ | 0.000279 ± 6.6e-06 s⁻¹ |  |
| G32A A39U | 0.00242 ± 0.00045 s⁻¹ | 6090 ± 1600 µM | 6.05e-05 ± 1.1e-05 s⁻¹ | 0.000213 ± 2.9e-05 s⁻¹ | 0.00144 ± 0.00017 s⁻¹ | 0.000855 ± 0.0001 s⁻¹ |  |
| U54G A64G | 0.0237 ± 0.011 s⁻¹ |  | 0.00149 ± 0.00039 s⁻¹ | 0.0071 ± 0.0013 s⁻¹ | 0.0227 ± 0.0052 s⁻¹ | 0.0145 ± 0.0059 s⁻¹ | 0.000837 ± 0.0001 s⁻¹ |
| G13A C50G C61G G66U | 0.000136 ± 9.6e-06 s⁻¹ | 17.2 ± 6.7 µM | 0.000112 ± 3.4e-05 s⁻¹ | 0.000165 ± 5.4e-05 s⁻¹ | 0.000126 ± 2.6e-05 s⁻¹ | 0.000149 ± 3.8e-05 s⁻¹ | 9.58e-05 ± 1.7e-05 s⁻¹ |
| G9A G13U | < 1e-05 s⁻¹ |  |  |  | < 1e-05 s⁻¹ | < 1e-05 s⁻¹ |  |
| A14C A39U | 0.00308 ± 0.00063 s⁻¹ | 2440 ± 670 µM | 0.000162 ± 1.9e-05 s⁻¹ | 0.000605 ± 6.5e-05 s⁻¹ | 0.00242 ± 0.00026 s⁻¹ | 0.00174 ± 0.00021 s⁻¹ | 6.46e-05 ± 6.9e-06 s⁻¹ |
| G7A U55A | 8.93e-05 ± 9.4e-06 s⁻¹ |  |  |  |  |  |  |
| C16A U54A | 0.0017 ± 0.00051 s⁻¹ | 2150 ± 940 µM | 0.000136 ± 2.6e-05 s⁻¹ | 0.000351 ± 4.9e-05 s⁻¹ | 0.00169 ± 0.00028 s⁻¹ | 0.00076 ± 0.00015 s⁻¹ | 5.13e-05 ± 1.3e-05 s⁻¹ |
| C11G A48G G59C | 0.000345 ± 1.4e-05 s⁻¹ | 1870 ± 150 µM |  | 8.84e-05 ± 2.1e-05 s⁻¹ | 0.000286 ± 7.5e-05 s⁻¹ | 0.0002 ± 3.7e-05 s⁻¹ |  |
| U55C U57C | 9.84e-05 ± 1.9e-05 s⁻¹ |  |  |  | 8.27e-05 ± 1.2e-05 s⁻¹ | 8.25e-05 ± 1.9e-05 s⁻¹ |  |
| C50G U55G C67G | 2.81e-05 ± 6.9e-06 s⁻¹ |  |  |  |  |  |  |
| A53G | 0.0676 ± 0.0095 s⁻¹ | 2010 ± 330 µM | 0.00441 ± 0.0003 s⁻¹ | 0.015 ± 0.00053 s⁻¹ | 0.0639 ± 0.0029 s⁻¹ | 0.0341 ± 0.0017 s⁻¹ | 0.00137 ± 2.6e-05 s⁻¹ |
